Test results published in US6479638.

Legend:
[1] = target: DNAX Leukocyte Associated Immunoglobulin-like Receptor (DLAIR-1) (human) (UniProt Q6GTX8); experiment: flow cytometry (FACScan) on CEM T cell tumor cells, PE goat-anti-mouse-IgG second step
[2] = target: DNAX Leukocyte Associated Immunoglobulin-like Receptor (DLAIR-1) (human) (UniProt Q6GTX8); experiment: flow cytometry (FACScan) on Peer T cell tumor cells, PE goat-anti-mouse-IgG second step
[3] = target: DNAX Leukocyte Associated Immunoglobulin-like Receptor (DLAIR-1) (human) (UniProt Q6GTX8); experiment: flow cytometry (FACScan) on HUT78 T cell tumor cells, PE goat-anti-mouse-IgG second step
[4] = target: DNAX Leukocyte Associated Immunoglobulin-like Receptor (DLAIR-1) (human) (UniProt Q6GTX8); experiment: flow cytometry (FACScan) on Molt4 T cell tumor cells, PE goat-anti-mouse-IgG second step
[5] = target: DNAX Leukocyte Associated Immunoglobulin-like Receptor (DLAIR-1) (human) (UniProt Q6GTX8); experiment: flow cytometry (FACScan) on U937 myeloid tumor cells, PE goat-anti-mouse-IgG second step
[6] = target: DNAX Leukocyte Associated Immunoglobulin-like Receptor (DLAIR-1) (human) (UniProt Q6GTX8); experiment: flow cytometry (FACScan) on Jurkat T cell tumor cells, PE goat-anti-mouse-IgG second step
[7] = target: DNAX Leukocyte Associated Immunoglobulin-like Receptor (DLAIR-1) (human) (UniProt Q6GTX8); experiment: flow cytometry (FACScan) on HL60 promyeloid tumor cells, PE goat-anti-mouse-IgG second step

mean fluorescence intensity [1] | mean fluorescence intensity [2] | mean fluorescence intensity [3] | mean fluorescence intensity [4] | mean fluorescence intensity [5] | mean fluorescence intensity [6] | mean fluorescence intensity [7] | Substance
92.7 | 29.1 | 25.8 | 30.7 | 49.5 | 47.1 | 46.9 | DX26 monoclonal antibody
< 5 | < 5 | – | < 5 | < 5 | < 5 | < 5 | control IgG1 (antibody)
